Here are results for four molecules from EP1752160A2 (Mannkind Corporation, dated 2007).

Test [1] deals with T1, HLA-A2.1 (human).
T1 construct: also called HLA-A*0201; HLA-A0201
Description: HLA-A2 binding assay on T2 cells, flow cytometry. On the technique in general: Flow cytometry measures light scatter and fluorescence of single cells or particles in a stream.

Test [2] concerns the target T1, HLA-A2.1. Description: T2 cell HLA-A2.1 stabilisation assay, flow cytometry.
Test [3] addresses T1, HLA-A2.1. Briefly: T2 cell HLA-A*0201 stabilisation assay, flow cytometry.

B1: tyrosinase208-216 (peptide)
peptide: LPWHRLFLL
notes: Synthetic 9-mer of tyrosinase; also called Tyr 208-216
Regarding B1, the binding result in test [1] is “binds”.

B2: tyrosinase207-215 (peptide)
peptide: FLPWHRLFL
notes: Synthetic 9-mer of tyrosinase; also called Tyr 207-215
As for B2, the binding result in test [1] was “binds”.

B3: SSX-2 41-49 (peptide)
peptide: KASEKIFYV
notes: Synthetic 9-mer of SSX-2
Regarding B3, the binding result in test [2] is listed as “binds”.

B4: PSMA663-671 (peptide)
peptide: MMNDQLMFL
notes: 9-mer of prostate specific membrane antigen
As to B4, the binding result in test [3] was “binds”.
